For orientation: stoichiometry N means the number of molecules, sites or subunits per partner or assembly.

Experiment [1] deals with hCRBPII Q108K:K40L:Y60W (human). Briefly: SEC. A general note: In gel filtration, larger molecules generally elute earlier.

The substance hCRBPII E72A (natural protein) returned a percent dimer with hCRBPII E72A (human) of 50%.

As to “hCRBPII Q108K:K40L:Y60W (natural protein)”, the stoichiometry N in experiment [1] was determined as 2.
